# Results: US20240043489A1, “Cytokine Prodrugs Comprising a Cleavable Linker” (Trutino Biosciences Inc., priority 2020, published 2024)
# Several values for one entry are separate records, joined by “and”; a condition that tells them apart may be missing. Identical values can stand only once. Like-named read-outs stand apart in the source and are kept apart here.
# What was measured:
# collagen = assay: IL-2 fusion protein collagen-agarose pulldown (immunoblot quantitation); format: binding; conditions: for Bound: blot quantitation, collagen-agarose bound fraction; for Normalized: bound fraction relative to Construct B (fold); for Bound (% input): fraction bound to collagen-agarose; for binding to collagen-agarose beads vs control agarose beads: pulldown 18-22 h at 4C
# Protocol: To test binding to collagen, a pulldown assay using agarose cross-linked to collagen (Sigma) was performed. IL-2 fusion proteins were incubated with collagen-agarose or control agarose beads for 18-22 h at 4C with gentle rotation in 1% BSA/PBS-0.05% Tween 20. After washing, proteins bound to the beads were eluted by resuspending beads in SDS sample buffer (Life Technologies). Bound proteins were then separated by SDS-PAGE on 4-12% BisTris gradient gel followed by immunoblotting with goat anti-mouse IL-2 polyclonal antibody (AF-402-NA; R&D systems). Donkey Anti-goat RP-conjugated antibody was used for detection (Jackson Immuno Research, West Grove, PA) and the blot was developed using the SuperSignal West Femto Maximum sensitivity detection reagent (ThermoFisher) following the manufacturer's recommendations.
# HEK-Blue™ IL-2 cells = assay: HEK-Blue IL2 reporter assay (SEAP, OD630); format: cell-based; conditions: Table 5C
# Protocol: Recombinant MMP9 and/or MMP2 (R&D Systems) was first activated with p-aminophenylmercuric acetate and this activated protease or equivalent amount of activating solution without the protease was used to digest or mock digest the fusion protein for 1 hr, 2 hr, 4 hr and overnight (18-22 hr) at 37 C. Cleavage assays are set up in TCNB buffer: 50 mM Tris, 10 mM CaCl2), 150 mM NaCl, 0.05% Brij-35 (w/v), pH 7.5. Digested protein was aliquoted and stored at −80° C. prior to testing. Aliquots of digests were subsequently analyzed by SDS-PAGE followed by Western blotting to evaluate the extent of cleavage. Digests were also assessed in functional assays such as CTLL-2 proliferation and HEK-Blue Interleukin reporter assays. As shown in FIGS. 2A-E, essentially complete cleavage by MMP9 protease of the fusion proteins with functional site is seen after overnight incubation. In contrast, proteins containing a scrambled MMP cleavage site are not cut (FIG. 2E). HEK-Blue™ IL-2 cells are specifically designed to monitor the activation of the JAK-STAT pathway induced by IL-2. Indeed, stimulation with human or murine IL-2 triggers the JAK/STAT5 pathway and induces secreted embryonic alkaline phosphatase (SEAP) production. SEAP can be readily monitored when using QUANTI-Blue™, a SEAP detection medium. These cells respond to human and murine IL-2. For the HEK Blue assay, untreated and digested samples are titrated and added to 50 000 HEK Blue cells per well in 200 ul medium in a 96-well plate and incubated at 37C in 5% CO2 for 20-24 hr. The following day, levels of SEAP are measured by adding 20 uL of cell supernatant to QuantiBlue reagent, followed by 1-3 h incubation at 37C and reading absorbance at 630 nm. FIGS. 3C-J, 3Q-Y and Table 5B-5C show results obtained from IL2 fusion proteins tested in HEK Blue IL2 assay.
# B16F10 melanoma = assay: In vivo efficacy of retention linker IL-2 drugs in B16F10 syngeneic model (Example 17); set-up: species or system mice; conditions: for TGI (%) D 15: 10 mg/kg IV Q3D, 5 doses; for TGI (%) D 20: 10 mg/kg, 7 days following the fifth dose
# Protocol: (§1) In a first efficacy study, C57BL/6 mice were subcutaneously inoculated with B16F10 melanoma cells and when the average tumor volume reached on average 70-90 mm^3, animals were randomized into 5 groups based on tumor volumes (n=6 mice per treatment group). Mice were dosed intravenously every 3 days (Q3D) for a total of 5 doses according to following design:
# as §1, with “second” for “first”, “study in the same model,” for “study,”
# On Day 20, mice received an additional dose of drug, animals were sacrificed 24 hrs later and tissues and blood (processed to serum) were collected and stored at −80C for further testing. […] This is most likely due to the higher levels of both circulating drugs in serum and resident drug in TME, which can exert prolonged anti-tumor activity even after an extended dosing holiday.
# [1] = Full-length drug levels in serum by ELISA; format: in vivo, mice; conditions: 10 mg/kg cohort, 24 hrs after dosing
# Protocol: (§2) We developed an ELISA assay to detect and quantify fusion proteins comprising IL-2 and IL-2Rα moieties. Wells of a 96-well plate are coated overnight with 100 uL of a rat anti-mouse IL-2 monoclonal antibody (JES6-1A12; ThermoFisher) at […] in PBS. After washing, wells are blocked with TBS/0.05% Tween 20/1% BSA, then fusion proteins and/or unknown biological samples are added for 1 hr at room temperature. After washing, an anti-mouse IL-2Rα biotin-labelled detection antibody (BAF2438, R&D systems) is added and binding is detected using Ultra Strepavidin HRP (ThermoFisher). The ELISA plate was developed by adding the chromogenic tetramethylbenzidine substrate (Ultra TMB, ThermoFisher). The reaction is stopped by addition of 0.5M H2SO4 and the absorbance is read at 450-650 nm.
# Additional serum samples collected at Day 17 (Construct B 20 mg/kg) and Day 21 (Construct Y 20 mg/kg), 4 days and 8 days respectively after the last IV injection, were assayed for full-length IL-2 fusion drug.
# [2] = Drug and IL-2 levels in B16F10 tumor lysates by ELISA; format: in vivo, mice; conditions: for IL-2 levels in treated tumors compared to Construct B treated tumors: free IL-2 calculated by subtraction, 24 h after last dose
# Protocol: as §2
# We developed a second ELISA assay to detect and quantify mouse IL-2 and/or fusion proteins comprising an IL-2 moiety. Wells of a 96-well plate are coated overnight with 100 uL of a rat anti-mouse IL-2 monoclonal antibody (JES6-1A12; ThermoFisher) at […] in PBS. After washing, wells are blocked with TBS/0.05% Tween 20/1% BSA, then fusion proteins and/or unknown biological samples are added for 1 hr at room temperature. After washing, an anti-mouse IL-2 biotin-labelled detection antibody (JES6-5H4, ThermoFisher) is added and binding is detected using Ultra Strepavidin HRP (ThermoFisher). The ELISA plate was developed by adding the chromogenic tetramethylbenzidine substrate (Ultra TMB, ThermoFisher). The reaction is stopped by addition of 0.5M H2SO4 and the absorbance is read at 450-650 nm. This assay is able to simultaneously detect both free mouse IL-2 as well as mouse IL-2 in the context of pro-drug fusion proteins.
# We quantified levels of full-length IL2-IL2Ra fusion proteins and IL-2 in tumor samples collected during pre-clinical efficacy studies comparing Construct B and retention linker IL-2 fusion drugs (see example 17).
# Tumors (n=3 per group) were collected 24 h after the last dose injection, flash frozen and stored at −80C until further processing. Tumor lysates were generated using tissue extraction reagent (ThermoFisher) supplemented with protease and phosphatase inhibitors and standard techniques and protein concentrations were determined using the BCA assay (Pierce).
# Lysates were tested with in-house ELISAs to measure full-length IL-2 fusion proteins (IL-2 capture/IL-2Rα detection) and IL-2 fusion proteins+free IL-2 (IL-2 capture/IL-2 detection). Free IL-2 levels in tumor were calculated by subtracting drug levels from the drug+IL-2 data set. Results were normalized to 1 mg of tumor lysate and mean values are shown in FIG. 15C-H. Levels of Construct CC (20 mg/kg dose) in tumor are roughly 3-fold higher compared to Construct B levels, despite Construct B being dosed at 40 mg/kg (FIG. C). […] Likewise, IL-2 levels in Construct CC, Construct GG and Construct II treated tumors are elevated compared to Construct B treated tumors (FIG. 15E/H). This implies that next generation retention linker technology is able to retain in TME both full-length drug and released IL-2 post-cleavage.
# [3] = cleaved with MMP9, read-out: +MMP EC50
molecule,measurement,setting,value
Construct GG: SEQ ID NO 817: m IL2-SGG-KLWVLPK-MMPcs1-2x(G4S)-mIL2Ra(1-215)-mu IgG1 Fc (protein) APTSSSTSSSTAEAQQQQQQQQQQQQHLEQLLMDLQELLSRMENYRNLKLPRMLTFKFYLPKQATELKDLQCLEDELGPLRHVLDLTQSKSFQLEDAENFISNIRVTVVKLKGSDNTFECQFDDESATVVDFLRRWIAFCQSIISTSPQSGGKLWVLPKGPLGVRGGGGGSGGGGSELCLYDPPEVPNATFKALSYKNGTILNCECKRGFRRLKELVYMRCLGNSWSSNCQCTSNSHDKSRKQVTAQLEHQKEQQTTTDMQKPTQSMHQENLTGHCREPPPWKHEDSKRIYHFVEGQSVHYECIPGYKALQRGPAISICKMKCGKTGWTQPQLTCVDEREHHRFLASEESQGSRNSSPESETSCPITTTDFPQPTETTAMTETFVLTMEYKGCKPCICTVPEVSSVFIFPPKPKDVLTITLTPKVTCVVVDISKDDPEVQFSWFVDDVEVHTAQTQPREEQFNSTFRSVSELPIMHQDWLNGKEFKCRVNSAAFPAPIEKTISKTKGRPKAPQVYTIPPPKEQMAKDKVSLTCMITDFFPEDITVEWQWNGQPAENYKNTQPIMDTDGSYFVYSKLNVQKSNWEAGNTFTCSVLHEGLHNHHTEKSLSHSPGK,Bound,collagen,5191
same,Normalized,collagen,2.5
same,Bound (% input),collagen,0.7%
same,binding to collagen-agarose beads vs control agarose beads,collagen,specifically bound by collagen-agarose beads
same,EC50,HEK-Blue™ IL-2 cells; [3],7.2 pM
same,EC50,"HEK-Blue™ IL-2 cells; uncleaved, read-out: −MMP EC50",140 pM
same,TGI (%) D 15,B16F10 melanoma,57% and 57.18%
same,TGI (%) D 20,B16F10 melanoma,64.70%
same,drug levels in serum relative to Construct B,[1],roughly 5 fold
same,"drug level in tumor, comparison in 10 mg/kg dosing cohort","[2]; 10 mg/kg, tumors 24 h after last dose",highest levels
same,IL-2 levels in treated tumors compared to Construct B treated tumors,[2],elevated
Construct II: SEQ ID NO 819: m IL2-LHERHLNNN-MMPcs1-2x(G4S)-mIL2Ra(1-215)-mu IgG1 Fc (protein) APTSSSTSSSTAEAQQQQQQQQQQQQHLEQLLMDLQELLSRMENYRNLKLPRMLTFKFYLPKQATELKDLQCLEDELGPLRHVLDLTQSKSFQLEDAENFISNIRVTVVKLKGSDNTFECQFDDESATVVDFLRRWIAFCQSIISTSPQSLHERHLNNNGPLGVRGGGGGSGGGGSELCLYDPPEVPNATFKALSYKNGTILNCECKRGFRRLKELVYMRCLGNSWSSNCQCTSNSHDKSRKQVTAQLEHQKEQQTTTDMQKPTQSMHQENLTGHCREPPPWKHEDSKRIYHFVEGQSVHYECIPGYKALQRGPAISICKMKCGKTGWTQPQLTCVDEREHHRFLASEESQGSRNSSPESETSCPITTTDFPQPTETTAMTETFVLTMEYKGCKPCICTVPEVSSVFIFPPKPKDVLTITLTPKVTCVVVDISKDDPEVQFSWFVDDVEVHTAQTQPREEQFNSTFRSVSELPIMHQDWLNGKEFKCRVNSAAFPAPIEKTISKTKGRPKAPQVYTIPPPKEQMAKDKVSLTCMITDFFPEDITVEWQWNGQPAENYKNTQPIMDTDGSYFVYSKLNVQKSNWEAGNTFTCSVLHEGLHNHHTEKSLSHSPGK,Bound,collagen,2277
same,Normalized,collagen,1.4
same,Bound (% input),collagen,0.4%
same,binding to collagen-agarose beads vs control agarose beads,collagen,specifically bound by collagen-agarose beads
same,EC50,HEK-Blue™ IL-2 cells; [3],9 pM
same,EC50,"HEK-Blue™ IL-2 cells; uncleaved, read-out: −MMP EC50",489 pM
same,TGI (%) D 15,B16F10 melanoma,57% and 57.68%
same,TGI (%) D 20,B16F10 melanoma,68.52%
same,drug levels in serum relative to Construct B,[1],~3 fold
same,IL-2 levels in treated tumors compared to Construct B treated tumors,[2],elevated
